Where a chain is given by its changes, count along the chain named.

Test [1] deals with T1, N-terminally polyhistidine tagged human MARCO ECD (147-520), recombinant (human, UniProt Q9UEW3 147-520).
T1 construct: also called PI-RG-3000; recombinant human MARCO; not shown: N-terminal polyhistidine tag
T1 sequence: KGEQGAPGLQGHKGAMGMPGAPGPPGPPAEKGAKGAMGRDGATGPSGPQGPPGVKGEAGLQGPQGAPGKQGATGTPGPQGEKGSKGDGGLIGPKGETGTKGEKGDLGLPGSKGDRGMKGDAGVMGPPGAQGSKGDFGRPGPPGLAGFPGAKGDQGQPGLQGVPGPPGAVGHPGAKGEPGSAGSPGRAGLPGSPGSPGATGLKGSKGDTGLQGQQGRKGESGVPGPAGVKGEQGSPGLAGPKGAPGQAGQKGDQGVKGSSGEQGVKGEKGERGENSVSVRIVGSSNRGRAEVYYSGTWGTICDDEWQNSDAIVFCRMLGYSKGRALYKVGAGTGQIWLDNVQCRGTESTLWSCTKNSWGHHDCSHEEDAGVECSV
Briefly: Biacore (SPR), binding affinity to human MARCO. In outline:
(§1)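 On a CM4 chip, anti-mouse Fc mAb was amine-coupled to a 4500 RU target and used to capture the antibodies. Their binding kinetics and affinity for N-terminally His-tagged human MARCO extracellular domain (147-520) were then measured by multi-cycle surface plasmon resonance on a Biacore T200. This was done at 25° C in 10 mM HEPES pH 7.4, 150 mM NaCl, 3 mM EDTA, 0.05% surfactant P20, with 0.625–10 nM injections, 90 s association and 600 s dissociation, and fitting in BIAevaluation 3.1.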

The target in test [2] is T2, recombinant cynomolgus MARCO protein (cynomolgus, UniProt A0A2K5X0Z2 65-519).
T2 construct: Construct not described; also called cyno MARCO; cynoMARCO
T2 sequence: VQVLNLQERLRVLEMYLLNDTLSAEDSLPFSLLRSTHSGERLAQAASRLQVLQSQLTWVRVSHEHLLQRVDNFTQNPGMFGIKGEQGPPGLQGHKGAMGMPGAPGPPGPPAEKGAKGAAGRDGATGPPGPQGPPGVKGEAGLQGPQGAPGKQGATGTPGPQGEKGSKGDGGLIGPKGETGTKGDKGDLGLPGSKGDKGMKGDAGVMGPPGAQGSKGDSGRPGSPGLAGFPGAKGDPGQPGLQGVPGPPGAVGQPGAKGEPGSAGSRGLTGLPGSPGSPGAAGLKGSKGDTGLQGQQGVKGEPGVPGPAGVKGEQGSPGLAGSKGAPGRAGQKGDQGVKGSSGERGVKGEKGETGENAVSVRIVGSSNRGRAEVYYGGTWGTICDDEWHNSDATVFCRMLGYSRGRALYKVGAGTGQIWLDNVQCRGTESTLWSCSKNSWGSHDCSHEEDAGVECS
Nature of the test: Biacore (SPR), recombinant cyno MARCO.

Test [3] has as its target T3, Human Macrophage Receptor with Collagenous Structure (MARCO), full length, on cells (human, UniProt Q9UEW3 1-520).
T3 construct: the cell type is named under assay; also called huMARCO; HuMARCO
T3 sequence: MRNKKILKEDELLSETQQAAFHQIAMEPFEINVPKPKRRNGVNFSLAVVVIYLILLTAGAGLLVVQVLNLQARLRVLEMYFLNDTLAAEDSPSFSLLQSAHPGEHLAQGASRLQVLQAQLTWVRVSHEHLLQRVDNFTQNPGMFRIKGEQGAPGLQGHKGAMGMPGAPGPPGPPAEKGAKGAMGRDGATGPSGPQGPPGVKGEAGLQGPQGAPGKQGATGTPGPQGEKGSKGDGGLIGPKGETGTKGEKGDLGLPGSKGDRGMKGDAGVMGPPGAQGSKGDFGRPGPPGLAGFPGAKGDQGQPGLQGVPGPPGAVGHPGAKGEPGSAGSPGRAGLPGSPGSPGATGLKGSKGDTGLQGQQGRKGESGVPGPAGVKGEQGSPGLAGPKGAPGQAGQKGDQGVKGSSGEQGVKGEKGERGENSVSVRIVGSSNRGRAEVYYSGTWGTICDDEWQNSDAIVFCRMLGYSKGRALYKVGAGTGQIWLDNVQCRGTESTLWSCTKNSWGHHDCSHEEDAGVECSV
Briefly: flow cytometry, cells overexpressing human MARCO; hu (first of hu/cyn). (In general: Flow cytometry measures light scatter and fluorescence of single cells or particles in a stream.)

For test [4], the target named is T4, Cynomolgus MARCO, full length, on cells (cynomolgus, UniProt A0A2K5X0Z2 1-519).
T4 construct: whole, on cells; also called cyno MARCO; CyMARCO
T4 sequence: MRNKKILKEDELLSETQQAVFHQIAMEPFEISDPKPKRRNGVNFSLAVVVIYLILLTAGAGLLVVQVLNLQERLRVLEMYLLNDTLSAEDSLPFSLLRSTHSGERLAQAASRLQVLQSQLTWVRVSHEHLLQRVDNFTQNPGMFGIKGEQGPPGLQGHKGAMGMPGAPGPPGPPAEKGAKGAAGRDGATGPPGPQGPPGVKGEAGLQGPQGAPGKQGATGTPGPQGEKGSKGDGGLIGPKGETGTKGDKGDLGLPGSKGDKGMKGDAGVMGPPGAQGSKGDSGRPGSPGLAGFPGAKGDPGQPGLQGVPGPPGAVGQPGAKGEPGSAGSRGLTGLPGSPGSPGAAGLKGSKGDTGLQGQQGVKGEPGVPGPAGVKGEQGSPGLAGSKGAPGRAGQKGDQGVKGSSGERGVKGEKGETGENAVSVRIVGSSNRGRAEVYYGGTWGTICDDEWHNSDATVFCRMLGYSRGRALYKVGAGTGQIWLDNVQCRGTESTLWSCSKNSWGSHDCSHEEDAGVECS
Nature of the test: flow cytometry, cells overexpressing cyno MARCO; cyn (second of hu/cyn).

The target of test [5] is T1, N-terminally polyhistidine tagged human …. Nature of the test: Biacore (SPR), recombinant human MARCO. The method in brief:
as §1
(In general: SPR reads the build-up and loss of mass on a sensor chip optically.)

In test [6] the target is T5, hVar3 (RG3036) (human, UniProt Q9UEW3 147-520).
T5 construct: Human MARCO His-CLD-SRCR with Q452D, Y472S and K473S (already in the entry); also called recombinant human SRCR MARCO hVar3 protein
Nature of the test: ELISA on recombinant hVar3 protein, A450.

Test [7] deals with T4, Cynomolgus MARCO, full length, on cells. Briefly: flow cytometry, 293T CyMARCO cells. The method in brief:
(§2)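 Geometric mean fluorescence intensity from flow cytometry, analysed in FlowJo and Prism, served as the readout of binding to HEK293T cells carrying human or cynomolgus MARCO. Cells were stained with Zombie NIR for viability and plated at 100,000 cells/well. An 8-point three-fold antibody dilution from 100 nM in D-PBS/2% FBS/2 mM EDTA was applied for 1 hr on ice, followed by APC goat anti-mouse IgG for 30 min on ice, with acquisition on an Attune NxT.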

Test [8] concerns the target T3, Human Macrophage Receptor with …. Briefly: flow cytometry, 293T HuMARCO cells. The method in brief: as §2
For test [9], the target named is T5, hVar3 (RG3036). Nature of the test: ELISA on hVar3. On the technique in general: ELISA stands for enzyme-linked immunosorbent assay.

B1: PI-3046-AB (antibody, human IgG4 S228P, kappa)
heavy: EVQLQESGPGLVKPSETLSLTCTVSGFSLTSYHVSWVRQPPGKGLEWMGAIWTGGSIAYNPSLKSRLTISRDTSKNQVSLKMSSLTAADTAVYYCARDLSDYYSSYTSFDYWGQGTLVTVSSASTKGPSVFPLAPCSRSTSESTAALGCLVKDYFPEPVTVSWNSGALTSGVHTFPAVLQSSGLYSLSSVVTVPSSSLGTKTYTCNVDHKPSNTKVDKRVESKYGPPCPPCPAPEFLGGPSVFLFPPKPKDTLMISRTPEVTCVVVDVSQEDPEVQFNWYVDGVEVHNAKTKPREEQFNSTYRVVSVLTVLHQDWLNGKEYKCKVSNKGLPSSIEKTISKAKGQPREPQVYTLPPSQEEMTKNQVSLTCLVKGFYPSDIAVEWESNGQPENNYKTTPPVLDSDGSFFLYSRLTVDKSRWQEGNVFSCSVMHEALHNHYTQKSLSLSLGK
light: DIQMTQSPSSLSASVGDRVTITCRASEGISNDLAWYQQKPGKAPKLLIYAASRLQSGVPSRFSGSGSGTDYTLTISSMQPEDFATYYCQQSYKYPLTFGQGTKLEIKRTVAAPSVFIFPPSDEQLKSGTASVVCLLNNFYPREAKVQWKVDNALQSGNSQESVTEQDSKDSTYSLSSTLTLSKADYEKHKVYACEVTHQGLSSPVTKSFNRGEC
Regarding B1, the Kd (commonly the concentration at which binding is half-saturated) in [1] amounted to 0.78 nM; in test [2], 1.1 nM; in test [5] it was 0.78 nM. Moreover, the results for the EC50 in test [3] and in test [4] were 0.821 nM and 1.07 nM, respectively. In addition, in test [5], the koff – broadly, the rate constant with which the complex falls apart – amounted to 0.000371 s⁻¹.

B2: PI-3047-AB (antibody, human IgG4 S228P, kappa)
heavy: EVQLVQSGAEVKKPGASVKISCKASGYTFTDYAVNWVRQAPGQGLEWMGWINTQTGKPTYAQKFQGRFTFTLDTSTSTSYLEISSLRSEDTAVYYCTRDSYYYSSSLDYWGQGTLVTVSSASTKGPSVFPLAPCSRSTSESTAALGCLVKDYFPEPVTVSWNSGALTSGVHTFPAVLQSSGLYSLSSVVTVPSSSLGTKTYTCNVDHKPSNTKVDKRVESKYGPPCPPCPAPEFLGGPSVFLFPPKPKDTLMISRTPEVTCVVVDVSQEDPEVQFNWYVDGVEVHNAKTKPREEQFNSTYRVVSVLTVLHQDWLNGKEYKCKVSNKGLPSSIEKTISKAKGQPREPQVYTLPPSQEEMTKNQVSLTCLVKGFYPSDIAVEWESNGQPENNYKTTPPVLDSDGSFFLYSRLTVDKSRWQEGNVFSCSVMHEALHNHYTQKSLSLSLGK
light: B1 light with E27A, S56D, Y71F, L96W
notes: Humanized PI-HX-3011, hIgG4
Consider B2, for which the Kd in test [1] was 0.72 nM; in test [2] it was 0.79 nM; in test [5] it was 0.72 nM. The EC50 (usually the midpoint of the concentration-response curve) was 0.796 nM in test [3] and 1.39 nM in [4]. Moreover, in [5], the koff was determined as 0.000337 s⁻¹.

B3: PI-3048-AB (antibody, human IgG4 S228P, kappa)
heavy: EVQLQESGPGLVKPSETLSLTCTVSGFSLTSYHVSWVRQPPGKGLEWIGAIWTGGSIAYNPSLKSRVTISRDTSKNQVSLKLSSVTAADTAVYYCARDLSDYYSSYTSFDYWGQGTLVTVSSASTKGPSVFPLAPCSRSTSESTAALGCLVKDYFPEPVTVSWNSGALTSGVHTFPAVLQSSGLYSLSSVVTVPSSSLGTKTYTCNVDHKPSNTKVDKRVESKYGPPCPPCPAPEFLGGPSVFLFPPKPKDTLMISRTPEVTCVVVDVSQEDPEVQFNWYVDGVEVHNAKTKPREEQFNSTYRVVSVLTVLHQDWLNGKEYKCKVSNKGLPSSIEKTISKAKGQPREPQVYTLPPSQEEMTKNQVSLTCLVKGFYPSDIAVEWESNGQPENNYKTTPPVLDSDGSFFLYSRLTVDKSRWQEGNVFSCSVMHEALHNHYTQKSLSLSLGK
light: B1 light with S56D, M78L
On to B3, for which the Kd is 1.05 nM in [1], 1.81 nM in [2] and 1.05 nM in test [5]. The EC50 in test [3] came out at 0.721 nM; in test [4], 2.39 nM. Also, in test [5], the koff worked out at 0.000386 s⁻¹.

B4: PI-3019-AB (antibody, mouse IgG2a, kappa)
heavy: EVQLVESGGGLVQPGSSLKLSCVASKFTFSNYGMNWIRQAPKKGLEWIALIYYNSNNKYYADSVKGRFTISRDNSKNTLYLEMNSLRSEDTAMYYCAKSLTGGSDYFDSWGQGVMVTVSSAKTTAPSVYPLAPVCGDTTGSSVTLGCLVKGYFPEPVTLTWNSGSLSSGVHTFPAVLQSDLYTLSSSVTVTSSTWPSQSITCNVAHPASSTKVDKKIEPRGPTIKPCPPCKCPAPNLLGGPSVFIFPPKIKDVLMISLSPIVTCVVVDVSEDDPDVQISWFVNNVEVHTAQTQTHREDYNSTLRVVSALPIQHQDWMSGKEFKCKVNNKDLPAPIERTISKPKGSVRAPQVYVLPPPEEEMTKKQVTLTCMVTDFMPEDIYVEWTNNGKTELNYKNTEPVLDSDGSYFMYSKLRVEKKNWVERNSYSCSVVHEGLHNHHTTKSFSRTPGK
light: DVQMTQSPSYLAASPGESVSISCKASKSIGTFLAWYQEKPEKTNKLLIYSGSTLQSGTPSRFSGSGSGTDFTLTIRNLEPEDFAVYYCQQHDEYPFTFGSGTKLEIKRADAAPTVSIFPPSSEQLTSGGASVVCFLNNFYPKDINVKWKIDGSERQNGVLNSWTDQDSKDSTYSMSSTLTLTKDEYERHNSYTCEATHKTSTSPIVKSFNRNEC
As to B4, the binding result in the test with hVar3 (RG3036) [6] is “binds”.

B5: PI-HX-3001 (antibody, rat IgG2a, V domains shown)
VH: EVQLVESGGGLVKPGASLKLSCVASGFTFSDYWMNWVRQTPGKTMEWIGDIKDDGSYTNYTPSLKNRFTISRDNAKSTLYLQMNNVRSEDTGTYYCTSGGVFDYWGQGVMVTVSS
VL: EIVLTQSPTTMAASPGEMVTITCRASSSVNYMHWFQQKSGTSPKPWIYDTSKLASGVPDRFSGSGSGTSYSLTISSMEAEDAASYYCLQRSTFPPTFGAGTKLELK
notes: Rat IgG2a hybridoma antibody; also called PI-3006 (name of the recombinant form)
With B5, the binding result in test [7] and in [8] was “no binding” throughout.

B6: PI-HX-3017 (antibody, rat IgG1, V domains shown)
VH: EVQLVESGGGLVQPGRSLKFSCSASGFTFSAYSMAWVRQAPKTGLEWVATIIYDGSSTYYRDSVKGRFTISRDNAKNTLYLQMDSLRSEDTATYYCARLGYSGHYFDYWGQGVMVTVSS
VL: DTVLTQSPALAVSLGQRVTISCQASESVSSSLHSYLHWYQQKPGQQPKLLIYRASNLESGVPARFSGSGSGTDFTLNIDPVEADDIATYFCQQSWNDPRTFGGGTKLELK
notes: Rat IgG1 hybridoma antibody; also called PI-3009 (name of the recombinant form)
On to B6, for which the binding result in test [7] and in test [8] was “no binding” each time.

B7: PI-3020-AB (antibody, human IgG4, kappa)
heavy: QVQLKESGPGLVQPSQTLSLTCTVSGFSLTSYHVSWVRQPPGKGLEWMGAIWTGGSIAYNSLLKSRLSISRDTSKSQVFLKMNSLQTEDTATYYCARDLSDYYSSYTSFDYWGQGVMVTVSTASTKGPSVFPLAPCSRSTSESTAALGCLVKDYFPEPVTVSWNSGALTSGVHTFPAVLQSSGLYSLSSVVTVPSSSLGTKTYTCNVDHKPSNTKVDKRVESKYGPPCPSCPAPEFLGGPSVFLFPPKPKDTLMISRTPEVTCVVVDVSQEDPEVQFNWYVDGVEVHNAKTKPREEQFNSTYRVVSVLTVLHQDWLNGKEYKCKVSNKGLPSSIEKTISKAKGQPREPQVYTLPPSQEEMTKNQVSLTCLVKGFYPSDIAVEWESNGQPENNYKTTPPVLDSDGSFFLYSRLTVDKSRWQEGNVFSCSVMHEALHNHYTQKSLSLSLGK
light: DIQMTQSPASLSTSLGETVSIECLASEGISNDLAWYQQKSGKSPQLLIYAASRLQDGVPSRFSGSGSGTRYSLKISGMQPEDEADYFCQQSYKYPLTFGSGTKLEIKRTVAAPSVFIFPPSDEQLKSGTASVVCLLNNFYPREAKVQWKVDNALQSGNSQESVTEQDSKDSTYSLSSTLTLSKADYEKHKVYACEVTHQGLSSPVTKSFNRGEC
On to B7, for which the binding result in the test with hVar3 (RG3036) [9] is on record as “no binding”.

Source of the values: US20220153832A1 (PIONYR IMMUNOTHERAPEUTICS, published 2022).
